Our source for the stoichiometry N values is paper PMC5873240.

For one test, the target named is Kv7.2-hAB[Δ6L]. Put plainly: NMR solution structure.
For another test, the target named is Kv7.2-hABCD. Put plainly: NMR spectra.

Take “calmodulin (from UniProt P0DP23 1-149) (natural protein)”: the stoichiometry N with Kv7.2-hAB[Δ6L] is 1.
As for Kv7.2-hABCD (domain or fragment), the stoichiometry N with Kv7.2-hABCD is 4.

As a reminder, the stoichiometry N is the number of molecules, sites or subunits per partner or assembly.
